From patent US20250026842A1

Legend:
[1] = target: human 4-1BB on the surface of HEK293-Hu4-1BB cells (human) (UniProt Q07011); assay: FACS on HEK293 cells highly expressing human 4-1BB
[2] = target: human 4-1BB on the surface of HEK293-Hu4-1BB cells (human) (UniProt Q07011); assay: cell-based or functional assay

human 4-1BB on the surface of HEK293-Hu4-1BB cells (human), sequence (Q07011 24-255): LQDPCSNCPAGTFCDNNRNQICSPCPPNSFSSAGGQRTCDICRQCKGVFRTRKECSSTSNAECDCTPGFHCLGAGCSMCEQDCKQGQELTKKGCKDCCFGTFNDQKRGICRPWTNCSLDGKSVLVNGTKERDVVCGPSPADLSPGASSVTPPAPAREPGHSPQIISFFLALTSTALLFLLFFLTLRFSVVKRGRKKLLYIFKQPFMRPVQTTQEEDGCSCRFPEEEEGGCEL

Q: For isotype IgG1 antibody, which Maximal fluorescence value [1] is on record?
A: 67

Q: And the Emax, 4-1BB/NF-κB luciferase reporter, FcγRIIb cross-linking (relative to antibody-free group) [2]?
A: 1.12

Q: What about the Emax, 4-1BB/NF-κB luciferase reporter, no FcγRIIb cross-linking (relative to antibody-free group) [2] of the same substance?
A: 1.1
